Several values for one entry are separate records, joined by “and”; a condition that tells them apart may be missing. Identical values can stand only once.
Assays:
[1] = target: T1, V5-lipin 1b (469-924), immunopurified (mouse, UniProt Q91ZP3 469-924); test: pull-down
T1 sequence (looked up): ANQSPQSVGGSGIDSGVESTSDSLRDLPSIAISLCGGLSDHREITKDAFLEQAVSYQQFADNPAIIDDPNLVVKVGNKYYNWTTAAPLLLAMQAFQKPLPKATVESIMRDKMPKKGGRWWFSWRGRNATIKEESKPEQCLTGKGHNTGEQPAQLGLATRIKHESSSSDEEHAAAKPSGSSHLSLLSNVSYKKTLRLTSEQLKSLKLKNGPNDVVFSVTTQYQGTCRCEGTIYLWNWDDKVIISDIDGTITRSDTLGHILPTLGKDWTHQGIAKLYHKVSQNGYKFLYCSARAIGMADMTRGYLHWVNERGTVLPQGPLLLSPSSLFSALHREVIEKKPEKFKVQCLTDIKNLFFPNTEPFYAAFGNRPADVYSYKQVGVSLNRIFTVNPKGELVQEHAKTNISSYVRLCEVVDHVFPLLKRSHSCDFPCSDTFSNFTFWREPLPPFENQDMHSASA

GST-lipin 1b (1-641) = target: T2, GST-lipin 1b (1-641) (mouse, UniProt Q91ZP3 1-641); test: pull-down
T2 sequence (looked up): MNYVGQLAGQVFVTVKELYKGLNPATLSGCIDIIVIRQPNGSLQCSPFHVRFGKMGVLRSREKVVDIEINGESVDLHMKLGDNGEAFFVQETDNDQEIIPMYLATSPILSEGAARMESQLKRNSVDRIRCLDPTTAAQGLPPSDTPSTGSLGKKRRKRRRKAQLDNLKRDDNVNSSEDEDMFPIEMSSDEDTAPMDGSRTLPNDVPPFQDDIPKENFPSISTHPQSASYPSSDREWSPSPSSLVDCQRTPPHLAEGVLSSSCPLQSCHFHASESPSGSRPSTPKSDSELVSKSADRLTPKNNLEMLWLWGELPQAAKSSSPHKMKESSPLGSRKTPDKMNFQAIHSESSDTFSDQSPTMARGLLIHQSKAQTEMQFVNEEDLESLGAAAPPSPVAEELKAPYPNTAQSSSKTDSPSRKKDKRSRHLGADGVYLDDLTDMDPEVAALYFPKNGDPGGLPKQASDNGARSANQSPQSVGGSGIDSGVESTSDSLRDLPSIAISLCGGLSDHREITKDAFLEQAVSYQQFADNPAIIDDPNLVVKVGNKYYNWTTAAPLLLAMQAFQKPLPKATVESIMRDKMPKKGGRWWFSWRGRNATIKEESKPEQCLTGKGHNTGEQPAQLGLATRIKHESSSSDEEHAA

native gel or EMSA = target: the molecule itself; test: native gel or EMSA

B1: GST-lipin 1b (642-924) (domain or fragment, mouse, UniProt Q91ZP3 642-924, looked up)
chain: AKPSGSSHLSLLSNVSYKKTLRLTSEQLKSLKLKNGPNDVVFSVTTQYQGTCRCEGTIYLWNWDDKVIISDIDGTITRSDTLGHILPTLGKDWTHQGIAKLYHKVSQNGYKFLYCSARAIGMADMTRGYLHWVNERGTVLPQGPLLLSPSSLFSALHREVIEKKPEKFKVQCLTDIKNLFFPNTEPFYAAFGNRPADVYSYKQVGVSLNRIFTVNPKGELVQEHAKTNISSYVRLCEVVDHVFPLLKRSHSCDFPCSDTFSNFTFWREPLPPFENQDMHSASA
Q: Does B1 bind [1]?
A: binds

B2: V5-lipin 1b (1-171), immunopurified (domain or fragment, mouse, UniProt Q91ZP3 1-171, looked up)
chain: MNYVGQLAGQVFVTVKELYKGLNPATLSGCIDIIVIRQPNGSLQCSPFHVRFGKMGVLRSREKVVDIEINGESVDLHMKLGDNGEAFFVQETDNDQEIIPMYLATSPILSEGAARMESQLKRNSVDRIRCLDPTTAAQGLPPSDTPSTGSLGKKRRKRRRKAQLDNLKRDD
Q: Does B2 bind (GST-lipin 1b (1-641))?
A: binds

B3: lipin 1b-V5 (HEK293A) (natural protein, mouse, UniProt Q91ZP3 1-924, looked up)
chain: MNYVGQLAGQVFVTVKELYKGLNPATLSGCIDIIVIRQPNGSLQCSPFHVRFGKMGVLRSREKVVDIEINGESVDLHMKLGDNGEAFFVQETDNDQEIIPMYLATSPILSEGAARMESQLKRNSVDRIRCLDPTTAAQGLPPSDTPSTGSLGKKRRKRRRKAQLDNLKRDDNVNSSEDEDMFPIEMSSDEDTAPMDGSRTLPNDVPPFQDDIPKENFPSISTHPQSASYPSSDREWSPSPSSLVDCQRTPPHLAEGVLSSSCPLQSCHFHASESPSGSRPSTPKSDSELVSKSADRLTPKNNLEMLWLWGELPQAAKSSSPHKMKESSPLGSRKTPDKMNFQAIHSESSDTFSDQSPTMARGLLIHQSKAQTEMQFVNEEDLESLGAAAPPSPVAEELKAPYPNTAQSSSKTDSPSRKKDKRSRHLGADGVYLDDLTDMDPEVAALYFPKNGDPGGLPKQASDNGARSANQSPQSVGGSGIDSGVESTSDSLRDLPSIAISLCGGLSDHREITKDAFLEQAVSYQQFADNPAIIDDPNLVVKVGNKYYNWTTAAPLLLAMQAFQKPLPKATVESIMRDKMPKKGGRWWFSWRGRNATIKEESKPEQCLTGKGHNTGEQPAQLGLATRIKHESSSSDEEHAAAKPSGSSHLSLLSNVSYKKTLRLTSEQLKSLKLKNGPNDVVFSVTTQYQGTCRCEGTIYLWNWDDKVIISDIDGTITRSDTLGHILPTLGKDWTHQGIAKLYHKVSQNGYKFLYCSARAIGMADMTRGYLHWVNERGTVLPQGPLLLSPSSLFSALHREVIEKKPEKFKVQCLTDIKNLFFPNTEPFYAAFGNRPADVYSYKQVGVSLNRIFTVNPKGELVQEHAKTNISSYVRLCEVVDHVFPLLKRSHSCDFPCSDTFSNFTFWREPLPPFENQDMHSASA
Q: Which “stoichiometry N” value (native gel or EMSA) does the source give for B3 here?
A: 2 and 4
